Earlier results on one substance are cited in article PMC10179296.

The data set concerns the target CCL2 (Homo sapiens) (UniProt P13500). Description: isothermal fluorescence titration.

Chain of Tenascin-C (P24821 23-2201): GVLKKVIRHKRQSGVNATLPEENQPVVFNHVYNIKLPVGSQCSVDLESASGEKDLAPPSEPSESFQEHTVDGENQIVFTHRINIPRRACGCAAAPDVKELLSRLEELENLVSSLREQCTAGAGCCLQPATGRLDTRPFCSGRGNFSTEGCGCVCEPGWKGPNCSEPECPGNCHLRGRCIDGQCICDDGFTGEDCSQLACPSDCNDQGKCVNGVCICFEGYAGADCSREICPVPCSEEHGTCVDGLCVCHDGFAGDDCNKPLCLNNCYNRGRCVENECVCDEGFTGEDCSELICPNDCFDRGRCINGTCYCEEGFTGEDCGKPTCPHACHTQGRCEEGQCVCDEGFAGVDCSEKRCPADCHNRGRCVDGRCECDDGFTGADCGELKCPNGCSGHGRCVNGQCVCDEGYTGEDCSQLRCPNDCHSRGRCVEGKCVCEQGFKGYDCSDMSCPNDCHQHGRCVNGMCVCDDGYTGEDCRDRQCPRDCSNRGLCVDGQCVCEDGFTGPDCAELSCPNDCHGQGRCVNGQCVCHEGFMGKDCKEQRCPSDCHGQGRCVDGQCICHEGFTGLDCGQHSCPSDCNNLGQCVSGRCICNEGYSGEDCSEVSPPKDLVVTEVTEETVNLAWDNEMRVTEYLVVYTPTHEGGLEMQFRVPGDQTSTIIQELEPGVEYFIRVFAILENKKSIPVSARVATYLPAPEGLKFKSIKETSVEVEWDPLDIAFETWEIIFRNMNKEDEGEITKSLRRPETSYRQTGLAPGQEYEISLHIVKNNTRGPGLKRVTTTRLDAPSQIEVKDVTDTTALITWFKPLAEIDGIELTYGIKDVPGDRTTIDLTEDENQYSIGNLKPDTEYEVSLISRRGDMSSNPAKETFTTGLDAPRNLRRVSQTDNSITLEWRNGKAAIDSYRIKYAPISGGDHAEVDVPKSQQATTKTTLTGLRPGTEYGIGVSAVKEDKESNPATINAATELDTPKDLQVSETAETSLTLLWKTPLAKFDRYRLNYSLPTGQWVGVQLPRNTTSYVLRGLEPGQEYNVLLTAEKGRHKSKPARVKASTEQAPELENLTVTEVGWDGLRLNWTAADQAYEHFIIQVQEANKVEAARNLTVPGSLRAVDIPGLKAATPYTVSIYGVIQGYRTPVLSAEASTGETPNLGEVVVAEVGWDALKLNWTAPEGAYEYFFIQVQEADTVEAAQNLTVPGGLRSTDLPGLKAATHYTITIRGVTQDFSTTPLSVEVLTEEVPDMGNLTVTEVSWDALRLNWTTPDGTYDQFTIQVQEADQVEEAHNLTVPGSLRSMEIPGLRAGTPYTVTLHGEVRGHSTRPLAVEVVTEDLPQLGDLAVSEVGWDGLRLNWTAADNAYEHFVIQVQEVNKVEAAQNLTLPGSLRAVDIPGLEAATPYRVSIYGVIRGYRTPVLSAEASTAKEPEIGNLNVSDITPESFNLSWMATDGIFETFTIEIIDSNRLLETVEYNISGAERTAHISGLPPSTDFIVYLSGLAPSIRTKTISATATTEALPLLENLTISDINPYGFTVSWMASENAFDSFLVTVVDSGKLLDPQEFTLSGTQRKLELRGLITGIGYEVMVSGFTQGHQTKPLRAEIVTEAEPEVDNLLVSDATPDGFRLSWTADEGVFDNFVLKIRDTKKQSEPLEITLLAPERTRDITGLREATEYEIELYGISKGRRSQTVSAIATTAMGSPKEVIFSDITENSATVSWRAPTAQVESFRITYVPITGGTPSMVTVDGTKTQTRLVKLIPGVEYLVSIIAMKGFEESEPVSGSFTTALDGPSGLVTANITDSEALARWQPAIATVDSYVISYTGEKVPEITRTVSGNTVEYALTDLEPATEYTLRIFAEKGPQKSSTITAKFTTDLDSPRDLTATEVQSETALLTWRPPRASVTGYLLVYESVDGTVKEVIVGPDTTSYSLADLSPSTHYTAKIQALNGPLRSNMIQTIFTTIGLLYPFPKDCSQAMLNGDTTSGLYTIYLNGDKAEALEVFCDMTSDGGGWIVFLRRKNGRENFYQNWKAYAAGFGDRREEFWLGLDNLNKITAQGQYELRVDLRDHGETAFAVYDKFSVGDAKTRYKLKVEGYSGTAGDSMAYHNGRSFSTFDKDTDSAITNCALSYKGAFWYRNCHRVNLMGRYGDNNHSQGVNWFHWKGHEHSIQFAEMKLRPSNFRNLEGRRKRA
Chain of CCL2 (Homo sapiens) (P13500 24-99): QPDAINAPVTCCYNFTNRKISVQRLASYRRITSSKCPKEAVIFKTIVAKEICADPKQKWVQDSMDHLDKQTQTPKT

As for Tenascin-C (from UniProt P24821), the Kd was 2330 nM.

One may read the Kd as the equilibrium constant for the complex coming apart.
